Results as given in US20110300138A1 (published 2011).
Like-named read-outs stand apart in the source and are kept apart here.

How the values were obtained:
Assay in all cases: cell-based or functional assay
[1] = target: TSHR with Ser281 mutated to Ala, expressed in CHO cells (human) (UniProt P16473)
[2] = target: TSHR with Glu107 mutated to Ala expressed in CHO cells (human) (UniProt P16473)
[3] = target: TSHR with Lys183 mutated to Asp expressed in CHO cells (human) (UniProt P16473)
[4] = target: TSHR with Tyr82 mutated to Ala expressed in CHO cells (human) (UniProt P16473)
[5] = target: wild type TSHR expressed in CHO cells (human) (UniProt P16473)

Substance “5B3 (human monoclonal antibody to GAD, negative control for K1-70)” has a Mutated/wild type (%) of cyclic AMP produced; test sample 5B3 10 µg/mL + TSH (3 ng/mL); Experiment 2 [1] of 80%, a Mutated/wild type (%) of cyclic AMP produced; test sample 5B3 100 µg/mL + TSH (3 ng/mL); Experiment 1 [1] of 71% and a Mutated/wild type (%) of cyclic AMP produced; test sample 5B3 100 µg/mL + TSH (3 ng/mL); Experiment 2 [1] of 87%. For the same substance, the % inhibition of TSH stimulation; 5B3 10 µg/mL [2] was 15%, the % inhibition of TSH stimulation; 5B3 100 µg/mL [2] was 17% and the Cyclic AMP produced; 5B3 10 µg/mL + TSH 3 ng/mL [2] was 70.9 pmol/mL. For the same substance, the Cyclic AMP produced; 5B3 100 µg/mL + TSH 3 ng/mL [2] was 66.8 pmol/mL, the Mutated/wild type (%) of cyclic AMP produced; 5B3 10 µg/mL + TSH 3 ng/mL [2] was 83% and the Mutated/wild type (%) of cyclic AMP produced; 5B3 100 µg/mL + TSH 3 ng/mL [2] was 82%. The % inhibition of TSH stimulation; 5B3 10 µg/mL [3] was 11%, the % inhibition of TSH stimulation; 5B3 100 µg/mL [3] was 0% and the Cyclic AMP produced; 5B3 10 µg/mL + TSH 3 ng/mL [3] was 105 pmol/mL. It also gave a Cyclic AMP produced; 5B3 100 µg/mL + TSH 3 ng/mL [3] of 128 pmol/mL, a Mutated/wild type (%) of cyclic AMP produced; 5B3 10 µg/mL + TSH 3 ng/mL [3] of 112% and a Mutated/wild type (%) of cyclic AMP produced; 5B3 100 µg/mL + TSH 3 ng/mL [3] of 117%. It also gave a % inhibition of TSH stimulation; 5B3 10 µg/mL; Experiment 1 [4] of 16%, a % inhibition of TSH stimulation; 5B3 10 µg/mL; Experiment 2 [4] of 4% and a % inhibition of TSH stimulation; 5B3 100 µg/mL; Experiment 1 [4] of 16%. The % inhibition of TSH stimulation; 5B3 100 µg/mL; Experiment 2 [4] was 8%, the Cyclic AMP produced; 5B3 10 µg/mL + TSH 3 ng/mL; Experiment 1 [4] was 139 pmol/mL and the Cyclic AMP produced; 5B3 10 µg/mL + TSH 3 ng/mL; Experiment 2 [4] was 71.9 pmol/mL. The Cyclic AMP produced; 5B3 100 µg/mL + TSH 3 ng/mL; Experiment 1 [4] was 139 pmol/mL, the Cyclic AMP produced; 5B3 100 µg/mL + TSH 3 ng/mL; Experiment 2 [4] was 68.5 pmol/mL and the Mutated/wild type (%) of cyclic AMP produced; 5B3 10 µg/mL + TSH 3 ng/mL; Experiment 1 [4] was 85%. For the same substance, the Mutated/wild type (%) of cyclic AMP produced; 5B3 10 µg/mL + TSH 3 ng/mL; Experiment 2 [4] was 96%, the Mutated/wild type (%) of cyclic AMP produced; 5B3 100 µg/mL + TSH 3 ng/mL; Experiment 1 [4] was 95% and the Mutated/wild type (%) of cyclic AMP produced; 5B3 100 µg/mL + TSH 3 ng/mL; Experiment 2 [4] was 99%. It also gave a % inhibition of TSH stimulation; 5B3 10 µg/mL [5] of 0%, a % inhibition of TSH stimulation; 5B3 10 µg/mL; Exp 1 [5] of 0% and a % inhibition of TSH stimulation; 5B3 10 µg/mL; Exp 2 [5] of 0%. The % inhibition of TSH stimulation; 5B3 10 µg/mL; Experiment 1 [5] was 0%, the % inhibition of TSH stimulation; 5B3 10 µg/mL; Experiment 2 [5] was 0% and the % inhibition of TSH stimulation; 5B3 100 µg/mL [5] was 0%. The % inhibition of TSH stimulation; 5B3 100 µg/mL; Exp 1 [5] was 0%, the % inhibition of TSH stimulation; 5B3 100 µg/mL; Exp 2 [5] was 0% and the % inhibition of TSH stimulation; 5B3 100 µg/mL; Experiment 1 [5] was 5%. The % inhibition of TSH stimulation; 5B3 100 µg/mL; Experiment 2 [5] was 0%, the Cyclic AMP produced; 5B3 10 µg/mL + TSH 3 ng/mL [5] was 85.3 pmol/mL and the Cyclic AMP produced; 5B3 10 µg/mL + TSH 3 ng/mL; Exp 1 [5] was 65.7 pmol/mL. It also gave a Cyclic AMP produced; 5B3 10 µg/mL + TSH 3 ng/mL; Exp 2 [5] of 100 pmol/mL, a Cyclic AMP produced; 5B3 10 µg/mL + TSH 3 ng/mL; Experiment 1 [5] of 163 pmol/mL and a Cyclic AMP produced; 5B3 10 µg/mL + TSH 3 ng/mL; Experiment 2 [5] of 73.7 pmol/mL. The Cyclic AMP produced; 5B3 100 µg/mL + TSH 3 ng/mL [5] was 81.6 pmol/mL, the Cyclic AMP produced; 5B3 100 µg/mL + TSH 3 ng/mL; Exp 1 [5] was 65.5 pmol/mL and the Cyclic AMP produced; 5B3 100 µg/mL + TSH 3 ng/mL; Exp 2 [5] was 98.1 pmol/mL. For the same substance, the Cyclic AMP produced; 5B3 100 µg/mL + TSH 3 ng/mL; Experiment 1 [5] was 146 pmol/mL, the Cyclic AMP produced; 5B3 100 µg/mL + TSH 3 ng/mL; Experiment 2 [5] was 68.9 pmol/mL and the % inhibition of TSH stimulation; 5B3 10 µg/mL ([5]; record 2) was 0%. It also gave a % inhibition of TSH stimulation; 5B3 10 µg/mL; Experiment 1 ([5]; record 2) of 4%, a % inhibition of TSH stimulation; 5B3 10 µg/mL; Experiment 2 ([5]; record 2) of 0% and a % inhibition of TSH stimulation; 5B3 100 µg/mL ([5]; record 2) of 0%. The % inhibition of TSH stimulation; 5B3 100 µg/mL; Experiment 1 ([5]; record 2) was 0%, the % inhibition of TSH stimulation; 5B3 100 µg/mL; Experiment 2 ([5]; record 2) was 0% and the Cyclic AMP produced; 5B3 10 µg/mL + TSH 3 ng/mL ([5]; record 2) was 93.7 pmol/mL. For the same substance, the Cyclic AMP produced; 5B3 100 µg/mL + TSH 3 ng/mL ([5]; record 2) was 109 pmol/mL.
